One substance from PMC10671485 can be followed below.

What all share (assay): fluorescence anisotropy
For orientation: In fluorescence polarisation assays a small probe gives low polarisation when free and higher when bound to something large.

For data set [1], the system named is POLRMT T315E (phosphomimic) (Homo sapiens). The note with it: N=5; 20 mM Tris-HCl EDTA buffer (pH and salt not given), 3 nM labeled duplex, 0-20 nM POLRMT, 25 °C; fit with Hill slope.
Data set [2] concerns POLRMT K402Q (acetyl mimic) (Homo sapiens). Particulars: N=5; 20 mM Tris-HCl EDTA buffer (pH and salt not given), 3 nM labeled duplex, 0-20 nM POLRMT, 25 °C; fit with Hill slope.
In data set [3] the test system is POLRMT T993E (phosphomimic) (Homo sapiens). Particulars: N=4; 20 mM Tris-HCl EDTA buffer (pH and salt not given), 3 nM labeled duplex, 0-20 nM POLRMT, 25 °C; fit with Hill slope.
For data set [4], the system named is POLRMT WT (Homo sapiens). Particulars: no TFAM or TFB2M mentioned; N=7; 20 mM Tris-HCl EDTA buffer (pH and salt not given), 3 nM labeled duplex, 0-20 nM POLRMT, 25 °C; fit with Hill slope.

The term Kd denotes the concentration at which binding is half-saturated. For light strand promoter (LSP) duplex, the Kd in data set [1] is 1.55 nM; in data set [2] it was 3.02 nM; in data set [3], 2.87 nM; in data set [4] it was 3.45 nM.
